These results are taken from doi:10.1101/2025.09.03.673926.

Where “and” joins values, the source holds several entries; their conditions need not be identical. Identical values can stand only once.

Assay [1] addresses TgSNF2LΔHydra (aa 1 to 1556 with an internal deletion between aa 880 and 1040) (Toxoplasma gondii). As to the kind of experiment: mass photometry.
The target is the same in assay [2]. Nature of the assay: SEC-MALS.
Assay [3] deals with TgSNF2L Hydra domain (886-1057) (Toxoplasma gondii). As to the kind of experiment: mass photometry.
For assay [4] the target is unchanged. Nature of the assay: native gel or EMSA. In general terms: Mobility shift assays separate free from complexed probe on a gel.
Assay [5] has the same target. Nature of the assay: SEC-MALS. A general note: SEC sorts molecules by how far they enter the pores of the column.
Assay [6] deals with TgSNF2L (aa 1 to 1556) (Toxoplasma gondii). Nature of the assay: mass photometry.
For assay [7] the target is unchanged. Nature of the assay: SEC-MALS.

For “TgSNF2LΔHydra (aa 1 to 1556 with an internal deletion between aa 880 and 1040) (enzyme)”, in assay [1], the percent of particles monomeric and dimeric was determined as 71%; the percent of particles tetrameric and higher turned out to be 19%. For the same substance, the stoichiometry N – broadly, a count of units in the complex or per binding partner – in assay [2] turned out to be 2.

Turning to “TgSNF2L Hydra domain (886-1057) (domain or fragment)”, the stoichiometry N in assay [3] was 10; in assay [4] it was 10 and 20; in assay [5], 10.

In assay [6], TgSNF2L (aa 1 to 1556) (enzyme) had a percent of particles dimeric of 11%; a percent of particles monomeric of 22%; a percent of particles tetrameric and bigger of 59%. This substance had a stoichiometry N in assay [7] of 4.
